{"source": "the RNAGym collection of RNA variant scans (doi:10.7554/elife.80360)", "parents": {"B1": {"name": "Hammerhead Ribozyme (parent)", "chain": "ACCGGAUGUGCUUUCCGGUCUGAUGAGUCCGUGAGGACGAAACAG"}}, "data": [{"variants_of": "B1", "assay": "self-cleavage, relative activity (ratio to wild type); higher = more cleavage; co-transcriptional", "values": [{"variant": "C3U U12A", "self-cleavage": 1.04}, {"variant": "C3U U12C", "self-cleavage": 0.99}, {"variant": "C3U U12G", "self-cleavage": 0.843}, {"variant": "C3U U13A", "self-cleavage": 1.1}, {"variant": "C3U U13C", "self-cleavage": 1.33}, {"variant": "C3U U13G", "self-cleavage": 0.866}, {"variant": "C3U U14A", "self-cleavage": 0.71}, {"variant": "C3U U14C", "self-cleavage": 0.669}, {"variant": "C3U U14G", "self-cleavage": 0.78}, {"variant": "C3U U19A", "self-cleavage": 0.385}, {"variant": "C3U U19C", "self-cleavage": 0.539}, {"variant": "C3U U19G", "self-cleavage": 0.38}, {"variant": "C3U U21A", "self-cleavage": 0.747}, {"variant": "C3U U21C", "self-cleavage": 0.731}, {"variant": "C3U U21G", "self-cleavage": 0.558}, {"variant": "C3U U24A", "self-cleavage": 1.24}, {"variant": "C3U U24C", "self-cleavage": 0.956}, {"variant": "C3U U24G", "self-cleavage": 0.945}, {"variant": "C3U U28A", "self-cleavage": 0.448}, {"variant": "C3U U28C", "self-cleavage": 0.854}, {"variant": "C3U U28G", "self-cleavage": 0.505}, {"variant": "C3U U32A", "self-cleavage": 0.95}, {"variant": "C3U U32C", "self-cleavage": 0.962}, {"variant": "C3U U32G", "self-cleavage": 0.452}, {"variant": "G4A", "self-cleavage": 0.602}, {"variant": "G4A A6C", "self-cleavage": 0.232}, {"variant": "G4A A6G", "self-cleavage": 0.355}, {"variant": "G4A A6U", "self-cleavage": 0.377}, {"variant": "G4A A23C", "self-cleavage": 0.337}, {"variant": "G4A A23G", "self-cleavage": 0.272}, {"variant": "G4A A23U", "self-cleavage": 0.356}, {"variant": "G4A A26C", "self-cleavage": 0.302}, {"variant": "G4A A26G", "self-cleavage": 0.35}, {"variant": "G4A A26U", "self-cleavage": 0.472}, {"variant": "G4A A34C", "self-cleavage": 0.35}, {"variant": "G4A A34G", "self-cleavage": 0.378}, {"variant": "G4A A34U", "self-cleavage": 0.49}, {"variant": "G4A A37C", "self-cleavage": 0.491}, {"variant": "G4A A37G", "self-cleavage": 0.391}, {"variant": "G4A A37U", "self-cleavage": 0.378}, {"variant": "G4A A40C", "self-cleavage": 0.359}, {"variant": "G4A A40G", "self-cleavage": 0.379}, {"variant": "G4A A40U", "self-cleavage": 0.325}, {"variant": "G4A A41C", "self-cleavage": 0.34}, {"variant": "G4A A41G", "self-cleavage": 0.287}, {"variant": "G4A A41U", "self-cleavage": 0.382}, {"variant": "G4A A42C", "self-cleavage": 0.335}, {"variant": "G4A A42G", "self-cleavage": 0.341}, {"variant": "G4A A42U", "self-cleavage": 0.319}, {"variant": "G4A A44C", "self-cleavage": 0.388}, {"variant": "G4A A44G", "self-cleavage": 0.84}, {"variant": "G4A A44U", "self-cleavage": 0.435}, {"variant": "G4A C11A", "self-cleavage": 0.62}, {"variant": "G4A C11G", "self-cleavage": 0.539}, {"variant": "G4A C11U", "self-cleavage": 0.389}, {"variant": "G4A C15A", "self-cleavage": 0.443}, {"variant": "G4A C15G", "self-cleavage": 0.419}, {"variant": "G4A C15U", "self-cleavage": 0.532}, {"variant": "G4A C16A", "self-cleavage": 0.907}, {"variant": "G4A C16G", "self-cleavage": 0.977}, {"variant": "G4A C16U", "self-cleavage": 0.781}, {"variant": "G4A C20A", "self-cleavage": 0.402}, {"variant": "G4A C20G", "self-cleavage": 0.334}, {"variant": "G4A C20U", "self-cleavage": 0.358}, {"variant": "G4A C29A", "self-cleavage": 0.374}, {"variant": "G4A C29G", "self-cleavage": 0.357}, {"variant": "G4A C29U", "self-cleavage": 0.543}, {"variant": "G4A C30A", "self-cleavage": 0.379}, {"variant": "G4A C30G", "self-cleavage": 0.368}, {"variant": "G4A C30U", "self-cleavage": 0.526}, {"variant": "G4A C38A", "self-cleavage": 0.373}, {"variant": "G4A C38G", "self-cleavage": 0.344}, {"variant": "G4A C38U", "self-cleavage": 0.453}, {"variant": "G4A C43A", "self-cleavage": 0.313}, {"variant": "G4A C43G", "self-cleavage": 0.29}, {"variant": "G4A C43U", "self-cleavage": 0.271}, {"variant": "G4A G5A", "self-cleavage": 0.54}, {"variant": "G4A G5C", "self-cleavage": 0.365}, {"variant": "G4A G5U", "self-cleavage": 0.398}, {"variant": "G4A G8A", "self-cleavage": 0.555}, {"variant": "G4A G8C", "self-cleavage": 0.46}, {"variant": "G4A G8U", "self-cleavage": 0.696}, {"variant": "G4A G10A", "self-cleavage": 0.866}, {"variant": "G4A G10C", "self-cleavage": 0.414}]}]}
